Experimental data as given in patent US20240425830, “ENGINEERED CAS12I NUCLEASE, EFFECTOR PROTEIN AND USE THEREOF” (Institute of Zoology, Chinese Academy of Sciences, published 2024).

T1: Cas12i2 wild-type
T1 chain: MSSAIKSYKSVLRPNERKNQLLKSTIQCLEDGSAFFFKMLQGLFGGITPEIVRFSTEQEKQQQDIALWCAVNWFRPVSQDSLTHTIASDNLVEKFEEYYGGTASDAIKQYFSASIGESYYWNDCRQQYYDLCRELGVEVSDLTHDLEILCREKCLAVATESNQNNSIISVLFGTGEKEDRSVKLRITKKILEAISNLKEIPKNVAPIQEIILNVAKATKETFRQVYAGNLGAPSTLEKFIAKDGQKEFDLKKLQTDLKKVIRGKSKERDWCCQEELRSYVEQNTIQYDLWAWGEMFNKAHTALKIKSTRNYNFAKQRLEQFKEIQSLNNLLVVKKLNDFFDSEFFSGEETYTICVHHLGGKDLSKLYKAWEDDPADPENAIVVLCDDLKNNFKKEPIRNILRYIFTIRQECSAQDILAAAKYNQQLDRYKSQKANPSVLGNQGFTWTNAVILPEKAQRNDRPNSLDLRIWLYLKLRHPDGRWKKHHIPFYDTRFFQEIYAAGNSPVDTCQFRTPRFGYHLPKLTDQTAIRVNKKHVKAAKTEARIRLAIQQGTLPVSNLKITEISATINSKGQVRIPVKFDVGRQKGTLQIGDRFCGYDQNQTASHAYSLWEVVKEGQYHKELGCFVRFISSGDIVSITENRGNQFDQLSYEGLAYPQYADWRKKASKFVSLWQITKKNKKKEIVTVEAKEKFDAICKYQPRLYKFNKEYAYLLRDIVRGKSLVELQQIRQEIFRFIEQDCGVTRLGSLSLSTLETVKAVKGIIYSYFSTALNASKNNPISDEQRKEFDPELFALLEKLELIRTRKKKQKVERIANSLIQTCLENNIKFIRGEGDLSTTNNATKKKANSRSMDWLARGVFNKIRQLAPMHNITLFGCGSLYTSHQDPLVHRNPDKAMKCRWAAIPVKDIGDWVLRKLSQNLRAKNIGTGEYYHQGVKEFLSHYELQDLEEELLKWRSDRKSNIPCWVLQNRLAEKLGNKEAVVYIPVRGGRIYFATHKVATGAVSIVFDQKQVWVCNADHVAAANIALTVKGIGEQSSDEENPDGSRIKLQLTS

T2: Cas12i2 E563R (E563R)
T2 chain: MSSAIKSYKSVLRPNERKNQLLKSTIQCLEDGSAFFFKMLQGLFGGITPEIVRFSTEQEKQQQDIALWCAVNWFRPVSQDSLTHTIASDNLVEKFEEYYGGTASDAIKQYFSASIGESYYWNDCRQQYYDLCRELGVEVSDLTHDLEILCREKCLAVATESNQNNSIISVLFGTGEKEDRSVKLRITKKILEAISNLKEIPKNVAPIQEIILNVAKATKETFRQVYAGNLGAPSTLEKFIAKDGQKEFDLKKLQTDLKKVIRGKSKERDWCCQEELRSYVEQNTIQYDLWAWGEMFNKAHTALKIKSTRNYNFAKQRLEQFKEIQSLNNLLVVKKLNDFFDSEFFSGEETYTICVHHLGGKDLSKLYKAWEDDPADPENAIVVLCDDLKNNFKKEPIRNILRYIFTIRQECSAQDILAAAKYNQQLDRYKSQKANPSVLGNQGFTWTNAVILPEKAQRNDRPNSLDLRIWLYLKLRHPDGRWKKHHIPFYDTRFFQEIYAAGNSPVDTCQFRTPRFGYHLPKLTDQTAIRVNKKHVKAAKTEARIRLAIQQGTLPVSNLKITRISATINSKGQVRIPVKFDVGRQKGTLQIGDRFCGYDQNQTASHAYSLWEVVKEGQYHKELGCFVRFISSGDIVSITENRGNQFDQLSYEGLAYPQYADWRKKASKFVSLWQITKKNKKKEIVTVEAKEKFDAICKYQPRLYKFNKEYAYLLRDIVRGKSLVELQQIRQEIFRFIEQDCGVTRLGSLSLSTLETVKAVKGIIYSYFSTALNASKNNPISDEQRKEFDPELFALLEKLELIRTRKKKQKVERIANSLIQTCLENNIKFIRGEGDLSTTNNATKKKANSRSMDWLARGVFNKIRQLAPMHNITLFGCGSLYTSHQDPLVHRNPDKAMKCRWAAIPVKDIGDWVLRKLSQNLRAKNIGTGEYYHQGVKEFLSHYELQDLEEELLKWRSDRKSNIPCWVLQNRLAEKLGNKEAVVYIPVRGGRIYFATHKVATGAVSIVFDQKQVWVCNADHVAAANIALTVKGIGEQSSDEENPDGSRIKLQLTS


Assays:
Cas12i2 wild-type = target: T1, Cas12i2 wild-type; test: cell_activity; HEK293T
Experimental: (§1) HEK293T cells were cultured in DMEM (Gibco) comprising 1% penicillin-streptomycin (Gibco) and 10% fetal calf serum (Gibco). Cells were seeded in 24-well cell culture dishes (Corning) for 16 hours until cell density reached 70%. By using Lipofectamine 3000 (Invitrogen), 600 ng of plasmid encoding Cas12i2 protein and 300 ng of plasmid encoding crRNA were transfected into each 24-well cell culture dish. After approximately 68 hours of transfection, HEK293T cells to be subjected to fluorescence-activated cell sorting (FACS) were digested with trypsin-EDTA (0.05%) (Gibco). Cell sorting was performed using MoFlo XDP (Beckman Coulter) with GFP channel.
(§2) FACS-sorted GFP-positive HEK293T cells were lysed with buffer L and incubated at 55° C. for 3 h and then at 95° C. for 10 min. PCR amplification of dsDNA fragments comprising target sites in different genomic sites was performed using corresponding primers. For targeted deep sequencing, cell lysate was directly used as a template to directly amplify the target site through barcoded PCR. PCR products were purified and pooled into several libraries for high-throughput sequencing. The frequency (%) of indels was analyzed using CRISPResso2 software by calculating the ratio of reads comprising indels. In this application, the index of indel frequency (%) was uniformly used to compare and analyze gene editing efficiency. Reads with less than 0.05% of complete reads are discarded.

Cas12i2 E563R = target: T2, Cas12i2 E563R; test: cell_activity; HEK293T
Experimental: as §1, §2

Binder | activity (Cas12i2 wild-type) [% indel] | activity (Cas12i2 E563R) [% indel]
crRNA CCR5-3 ; CCR5-3 target (ssRNA ; dsDNA) RNA: AGAAAUCCGUCUUUCAUUGACGGAGGCCAAAGAAUUCCUGGAA DNA 1: AGGCCAAAGAATTCCTGGAA DNA 2: TTCCAGGAATTCTTTGGCCT | 10.4 | 55.5
crRNA RNF2-7 ; RNF2-7 target (ssRNA ; dsDNA) RNA: AGAAAUCCGUCUUUCAUUGACGGUUCAACAUAUCCAAACAAAU DNA 1: TTCAACATATCCAAACAAAT DNA 2: ATTTGTTTGGATATGTTGAA | 11.7 | 68.3
